Assay results published in the nanobody polyreactivity screen of Harvey et al. (2022).

Experiment: yeast display, Sf9 membrane polyspecificity reagent, FACS + sequencing; frameworks hold sequencing errors
In short: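 Synthetic nanobody libraries on Saccharomyces cerevisiae BJ5465 were galactose-induced for 36–48 hours, stained 1 hour at 4 °C with 10% biotinylated, detergent-solubilized Sf9 membrane reagent and enriched on streptavidin microbeads. FACS then separated cells into low and high (top ~1%) gates by anti-HA (expression) and streptavidin (reagent binding) fluorescence. Genes were colony-PCR amplified, MiSeq 2 × 250 sequenced and CDR-length filtered. A clone's polyreactivity label is that of its gate of origin.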

| Sequence | polyreactivity (PSR sort gate) |
| --- | --- |
| QVQLVESGGGLVQAGGSLRLSCAASGFTFPYYAMGWYRQAPGKERELVAAISRNGGSTYYADSVKGRFTISRDNAKNTVYLQMNSLKPEDTAVYYCAARYRYWGGSGFKGFDYWGQGTQVTVSS | high polyreactivity |
| QVQLVESGGGLVQAGGSLRLSCAASGFTFVRYAMRWYRQAPGTERELVAAISYSGGRTYYADSVKGRFTISRDTAKNTVYLQMNSLKPEDTAVYYCAADAFRGFYWGQGTQVTVSS | high polyreactivity |
| QVQLVESGGGLVQAGGSLRLSCAASGRIFDTNVMGWYRQAPGKERELVAAISSGGSTYYADSVKGRFTISRDNAKNTVYLQMNSLKPEDTAVYFCAAESRTSRARRYYWGQGTQVTVSS | high polyreactivity |
| QVQLVESGGGLVQAGGSLRLSCAASGRIFYQYAMGWYRQAPGKEREFVAAISISGTSTYADSVKGRFTISRDNAKNTVYLQMNSLIPEDTAFYYCNVGPRAGWYRSNYDYWGQGTQVTVSS | low polyreactivity |
| QVQHVESGGGLVQAGGSLRLSCAASGSTLGGYVMGWYRQAPGKERELVASITYSGGSTRYADSVKGRFTISRDNAKNTVYLQMNSLKPEDTAVYYCAAGAQRTYYTYSFRRVGYDYDYWGQGTQVTVSS | low polyreactivity |
| QVQLVESGGGLVQAGGSLRLSCAASGFIFRYYAMGWLRQAPGKERELVAAISWSGGNTYYADSVKGRFTISRDNAKNTVYLQMNSLKPEDTAVYYCAARVARISVPYDYWGQGTQVTVSS | low polyreactivity |
| QVQLVESGGGLVQAGGSLRLSCDASGSTFSYYAMGGYRQAPGKERELVAAISGRGGSTYYADSVKGRFTISRDNAKNTVYLQMNSLKPEDTAVYYCAKGRLYTAYGLYSWGQGTQVTVSS | high polyreactivity |
| QVQLVESGGGLVQAGGSLRLSCAASGIIFSLNTMGWYRQAPGKERELVAAISSSGGSTYYADSVKGRFTISRDNAKNTVYLQMTSLKPEDTAVYYCARRYAPNTSLTFYYWGQGTQVTVSS | low polyreactivity |
| QVQLVESGGGLVQAGGSLRLSCAASGSTLALYTMGWYIQAPGKERELVAAISKNGGRTYYADSVKGRFRISRDNAMNTVYLQMNSLKPEDTAVYYCAAASGSYRGYDYWGQCTQVTVSS | high polyreactivity |
| QVQLVESGGGLVQAGGSLRLSCAASGATFAQYAMGWYRQAPGKERELVAAISRGGGSTYCADSVKGRFTISRDNAKNTVYLQMNSLKPEDTAVYYCAADPRYRVTLGFDYWGQGSQVTVSS | high polyreactivity |
| QVQLVESGGGLVQAGGSGRLSCAASGSIFFAYGMGWYRQATGTERELVAAIPNSGTSTYYADSVKGRFTISRDNAKNSDYLQMNSLKPEDTAVFYCARDNEPDYYSYPYDYWGEGTQVTVSS | low polyreactivity |
| QVQLVESAGGLVQAGGSLRLSCAASGYTFYRNAMGCYRQAPGKERELVAAISWRGGSTYYADSVKGRFTISRDNAKNTVYLQMNSLKPEDTAVYYCAAYFSYGGSTTGEEYWGQGTQVTVSS | high polyreactivity |
| QVQLVESGGRLVQAGGSLRLTCAASGYTYSYYAMGWYRQAPGKERELVAAINYSGGRTYYADSVKGRFTISRDNAKNTVYLQMNSLKPEDTAVYYCAAYTRNGDYDYWGQGTQVTVSS | high polyreactivity |
| QVQLVESGGGLVQAGGSLRLSCAASGSTFLRNVMGWYRQAPGKERELVAAISSRGGSTHYADSVQGRFTISRDNAKHTVYLQMNSLKPEDTAVYYCNAERTAAQYVRAAYDYWGLGTQVTVSS | low polyreactivity |
| QVQLVESGGGLVQAGGSLRLSCAASGNTYLNAMGWYRQAPGKERELVAAISKGGADTYYADSVKGRFTISRDNAKNTVYLQMNSLKPEDTAVYYCAADGYADGWWVEYPWTYDYWGQGTQVTVSS | low polyreactivity |
| QFQLVESGGGLVQAGGSLRLSCAASRFYTMGWSRQAPGKERELVAAISWSGGDTYYADSVKGRFTISRDNAKNTVYLQMTSLKPEDTAVYYCAKKTIGSYVHEPYYYWGHGTQVTVSS | low polyreactivity |
| QVQLVESGGGLVQAGGSLRLSCAASGSTFNIYAMGWYRQAPGKERELVAAISGNGDRTYYADSVKGRFTISRDNAKNTVYLQMNSLKPEDTAVYYCAAKYYGWGQGTQVTVSS | high polyreactivity |
| QVQLVESGGCLVQAGGSLRLSSAASGFTFRRYTMGWYRQAPGKVRELVAAISRSGGSTFYADSVKGRFTISRDNAKNTVYLQLNSLKPEDSAVYYCNAGRTYTALNGDYWGHGTQVTVSS | high polyreactivity |
| QVQLVESGGGLVQAGGSLRLSCAASGFPFAKNAMGWYRQAPGKERELVAVITSSGGSTYYADSVKGRFTISRDNAKNTVYLQMNCLKPEDTAVYYCNVAYYYRSRSTGYEYWGQGTQVTVSS | high polyreactivity |
| QVQLVESGGGLVQAGGSLRLSCASSGSIFFEYAMVWYRQAPGKERELDASINRGGGSTYYADSVKGRFTISRDNAKNTVYLQMNSLKPEDTAVYYCAAQWKYRQSYLDYYWGQGTQVTVSS | low polyreactivity |
| QVQLVESRGGKVQAVGSLRLSCAASGLTFYTYAMGWYRQEPGKDRELVAAIRYRGGRSNYADSVKGRFTISRDNANNTVYLQMNSLKPEDTAVYYCAARSILVTQAYGYWGQGTQVNVSS | high polyreactivity |
| QVQLVESGGGLVQAGGSLRLSCSASGSIFGSYAMGWYRQAPGKERELVARINTRGGSTYYADSVKGRFTISRDNAKYTVYIQMNSLKPADTAVYYCAKERRASVVRYDYWGQGTQVTVSS | low polyreactivity |

| Sequence | polyreactivity (PSR sort gate) |
| --- | --- |
| QVQLEESGGGLVQAGGRLRLSCAASGSTYSEYAMGWSRKAPGKQRELVAAINWSGGSTYYADSVKGRFTISRDNAKNTVYLQMNSLKPEDTAVYYCNKVFRHHWYPAYNSWGQGTQVTVSS | low polyreactivity |
| QVQLVESGGGLVQAGGSLRLSCAASGSIFNYNAMGWYRQAPGKERELVAAISWSGGSTYYADSVKGRFTISRDNAKNTVYLQMNSLKPEDTAVYYCAVATGLLYKSHGYWGQGTQVTVSS | low polyreactivity |
| QVQLVKSGGGLVQAGGSLRLSCAASGSTFNKYTMGWYRQAPWKERELVAAITSGDSTYYADSVKGRFTISRDNAKNTVYLQMNSLKPEDTAVYYCAKSLRAYRHVIYGKALYSWGQGTQVTVSS | low polyreactivity |
| QVQLVESGGGLVQAGGSLRLSCAASGSILSENAMGWYRQAPGKERELVATISGSGSSTYYADSVKGRFTISRDNAKNTVYLQMNSLKPEDTAVYYCAAKYYLYWWPYDYWGQGTQVTVSS | low polyreactivity |
| QVQLVESGGGLVQAGGSLRLSCAASGGIFSKNVMGWYRQAPGKERELVAAISRGGTTSYADSVKGRFTISRDNAKNTVYLQMNSLKPEDTAVYFCAAKYWWYPYFTVDYDYWGQGTQVTVSS | high polyreactivity |
| QVQLVESGGGLVQAGGSLRLSCADSGRTFGVYTMGWYRQAPGKERELVAAISGSGGSTYYADSVKGRFTISRDNAKNTVYLQMNSLKPEDTAVYYCNADQNVDVFYRYRLYDSWGQGTQVTVSS | high polyreactivity |
| QVQLVESGGGLVQAGGSLRLSCAASGSIFDAYAMGWYRQAPGKERELVAAISSGGNTNYADSVKGRFTISRDNAKNTVDLQMNSLKPEDTAVYYCAADFTHPDGLPGFDYWGQGTQVTVSS | low polyreactivity |
| QVQLVESGGGLVQAGGSLRLSCAASGYTFNRYAMGWYRQAPGKERELVAAITRGGTTYYADSVKGRFTISRDNAKNTVYLQMNSLKPEDTAVYYCNKFQPSGQYFKMGYWGQGTQVTVSS | high polyreactivity |
| QVQLVESGGGLVQAGGSLRLSCAASGSIFQPYAMGWYRQAPGKERELVATISSSGSTYYADSVKGRFTISRDNAKNTVYLQMTSLKPEDTAVYYCAAVYSDGPYNGYWLEYEYWGQGTQVTVSS | low polyreactivity |
| QVQLVESGGGLVQAGGSLRLSCAASGSIFGAYTMGWYRQAPGKERELVAAITGGGITNYADSVKGRFTISRDNAKNTVYLQMNSLKPEDTAVYYCNAGYPPQTVVVGYDYWGQGTQVTVSS | low polyreactivity |
| QVQLVESGGGLVQAGGSLRLSCAASGSISNQYVMGWYRQAPGKERELVAAIRVIGGSTSYADSVKGRFTISRDNAKNTVYLQMNSLKPEDTAVYYCAADWAWTISDGYYYGYPQYDYWGQGTQVTVSS | high polyreactivity |
| QVQLVESGGGLVQAGGSLRLSCAASGRIFPRYAMGWYRQAPGKERELVASISGTGSRTYYADSVKGRFTISRDNAKNTVYLQMNSLKPEDTAVYYCAAYSFRKLDYYWGQGTQVTVSS | high polyreactivity |
| QVQLVESGGGLVQAGGSLRLSCAASGLTFHSNDMGRYRQAPWKETEFVAAITSGGNTYYADSVKGRFTISRDNAKNTVYLPMNSLKPEDTAVYYCNADYQDEEDDYWGQGTQVTVSS | low polyreactivity |
| QVQLVESGGGLVQAGGSLRLSCAASGSIFVWYVMGWYRQAPGKERELVAAITWSAARTYYADSVKGRFTISRDNAKNTVYLQMNSLKPADTAVYYCAADHVSYQPSSRIFDYWGHGTQVTVSS | low polyreactivity |
| QVQLVESGGGLVQAGGSLRLSCAASGSTFLTNAMGWYRQAPGKERELVAAIRTSGGSTYYADSVKGRFTSSRDNAKKTVYVLMNSLKPEDTAVYYCAASYRRRRFSEYYYWGQGTQVTVAS | high polyreactivity |
| QVQLVESGGGLVQAGGSLRLSCAASGFILSPYAMGWYRQAPGKERELGAVITISGGSTYYADSVKGRFTISRDNAKNTVYLQMNSLKPEDTAVYYCAADYYDLVYDYYYWGQGTQVTVSS | high polyreactivity |
| QVQLVESGGGLVQAGGSLRLSCAASGITFNSYAMGWYRQAPGKERELVAAITLTGGTTYYADSVKGRFTISRDNAKNTVYLQMNSLKPEDTAVYYCAAQYWWWSRFEYDSWGQGTQVTVSS | low polyreactivity |
| QVQLVESGGRLVHAGGSLRLSCAASGSTFERNLMGWYSEAPGKERELVAAISRVSSTNYADSVKGRFTISRDNAKNTVYLQMNSVKPEDTAVYSCAADRAGSIMNYWGQGTQVTVSS | low polyreactivity |
| QFQLVESGGGLVQAGGSLRLSCADSGSIFSGYAMGRYRQEPGKDSELVASITRGGSTYYADSVKGRFTISLDNAKNNVYLQINSLKQEDTAVYYCARYGYKNRPLGMDYWGQGTQVTVSS | low polyreactivity |
| QVQLVESGGGLVQAGGSLRLSCAASGNIFTYYAMGWYRQAPGKERELVAAIRWRSGSTYYADSVKGRFTISRDNAKNTVYLQMNSLKPEDTAVYYCAADGTPYEYDYWGHGTQVTVSS | low polyreactivity |
| QEQLQESGGGQVQAGGSLLLSCAASGNIIRYYYMGWYRQAPGKERELVAAITYGTSTNDADSVKGRFTISRDNAKNTVYLQMNSLKPEDTAVYYCAVDVNYGDPLDNWGQGTQVTVSS | high polyreactivity |
